Measurements reported in PMC12219675 (Nature Communications, 2025).

Biological target: the molecule itself
Experiment: thioflavin T fluorescence

B1: G175S PMEL CAF domain (residues 148-223) (domain or fragment)
chain: SFVYVWKTWGQYWQVLGGPVSGLSIGTSRAMLGTHTMEVTVYHRRGSRSYVPLAHSSSAFTITDQVPFSVSVSQLR
For B1, which “polymerisation (ThT fluorescence) relative to the wild type” value is on record?
Its value is roughly 4 fold.
